B1: p53: recombinant mouse p53 protein expressed in E. coli (protein, UniProt P02340 1-390, looked up)
Cellular tumor antigen p53: MTAMEESQSDISLELPLSQETFSGLWKLLPPEDILPSPHCMDDLLLPQDVEEFFEGPSEALRVSGAPAAQDPVTETPGPVAPAPATPWPLSSFVPSQKTYQGNYGFHLGFLQSGTAKSVMCTYSPPLNKLFCQLAKTCPVQLWVSATPPAGSRVRAMAIYKKSQHMTEVVRRCPHHERCSDGDGLAPPQHLIRVEGNLYPEYLEDRQTFRHSVVVPYEPPEAGSEYTTIHYKYMCNSSCMGGMNRRPILTIITLEDSSGNLLGRDSFEVRVCACPGRDRRTEEENFRKKEVLCPELPPGSAKRALPTCTSASPPQKKKPLDGEYFTLKIRGRKRFEMFRELNEALELKDAHATEESGDSRAHSSYLKTKKGQSTSRHKKTMVKKVGPDSD
B2: IDI-1: Ab2 monoclonal antibody anti-idiotypic to PAb-421 that binds DNA; VH and VL SEQ ID NOs:4 and 5 (antibody, listed as Mus sp., V domains shown)
VH: IPQVQLQQSGAELVRPGASVKLSCKASGYIFTSYWINWVRQRPGQGLEWIGNISPADSSTNYNQKFKDKATLTVDKSSTTAYMQLSRPTFEDSAVYYCAREEVRRRRDMDFWGQGTSVTVSSAKTTPPC
VL: RKLDIVITQDELSNPVTSGESVSISCRSRQSLLYKNGKTYLNWFLQRPGQSPQLLIYLMSIRASGVSDRFSGNGSGTDFTLEISRVRAEDVGVYYCQQLVEYPYTFGGGTKLEIKRADAAPT
modifications: BINDING (28)..(37) Complementary Determining Region; BINDING (27)..(42) Complementary Determining Region
B3: IDI-2: Ab2 monoclonal antibody anti-idiotypic to PAb-421 that binds DNA; VH and VL SEQ ID NOs:6 and 7 (antibody, listed as Mus sp., V domains shown)
VH: QVQLQQSGPELVKPGASMKISCKASGYSFTGYTINWVKQSHGKNLEWIGLINPYNGGTCYNPKFKGKATLTVDKSSSTAYMELLSLTSEDSAVYYCARRVWLRRDGFYYAMDYWGQGTSVTVSSAKTTPP
VL: AVSLGQRATISCQASESVSFAGTSLMHWYQQKPGQPPKLLIYRASKLESGVPARFSGSGSESDFTLTIDPVEEDDAAMYYCMQSMEDPYTFGGGTKLEIKRADAAPTVSIFPPS
modifications: BINDING (26)..(35) Complementary Determining Region; BINDING (13)..(27) Complementary Determining Region

Columns and labels:
MRL/MpJ-Fas^lpr mice = assay: Prevention of spontaneous SLE in MRL/MpJ-Fas^lpr mice; type: in vivo; conditions: for heavy proteinuria, ^33 g/l (+++) at week 17 of age, mice affected/treated: peptides 100 μg i.p. in PBS at weeks 12, 18, 24, TCV 2×10^7 cells i.p. at 12 weeks; for death by week 33 of age, percent of mice / heavy proteinuria, ^33 g/l (+++) at week 17 of age, percent of mice: same treatments
Excerpt: Proteinuria was detected with Albustix strips (Bayer, Slough, UK). Leukocytes were counted from heparinized blood following 10-fold dilution in 1% acetic acid.
Thus, modulation of the p53 immune network should affect the course of SLE. A preliminary experiment was designed to see whether the spontaneous SLE development in MRL/MpJ-Fas^lpr mice might be influenced by administering to these mice peptides involved in the p53 network: the CDR peptides of the light and the heavy chain of PAb-421 depicted in FIG. 10 (administered as a mixture), or peptide 364-383 (residues 364-383 of SEQ ID NO:1) of the carboxy terminal domain of p53. The mice were intraperitoneally injected with 100 μg of the p53 peptide epitope of PAb-421 in PBS, or with 100 μg of peptides derived from variable region of PAb-421 in PBS at weeks 12,18, and 24 of age and followed for the development of SLE symptoms. […] Treatment with the peptides derived from the variable region of PAb-421 protected all five mice from development of proteinuria (0%; Table 2: 421: CDR). At week 33 of age, 5 of 6 non-treated mice (83%, cf. Table 2) were dead, whereas none of the mice treated with either peptide had died (0% each; see Table 2).
Also carried out was T cell vaccination against immunity to PAb-421. MRL/MpJ mice were immunized intradermally with 30 μg PAb-421 in complete Freund's adjuvant, followed by a boost in incomplete Freund's adjuvant. Cells derived from the draining lymph nodes, which were enriched for T cells reactive to PAb-421 and the p53 epitope peptide of PAb-421, were activated with 2 μg per ml Concanavalin A. Twelve week old MRL/MpJ-Fas^lpr mice were then injected intraperitoneally with 2×10^7 freshly activated and gamma-irradiated (2500 rad) cells per mouse. At 17 weeks of age, only 1 out of 8 treated mice […] developed severe proteinuria, while, in contrast, 6 out of 8 untreated control mice (75%) developed severe proteinuria. 421-TCV vs. not treated.

[1] = system: single-stranded homooligomers (20-mers) of dG, dA, dC and dT; assay: Band-shift assay with single-stranded homooligomers; type: binding; conditions: preliminary studies
Excerpt: Preliminary studies were done to define the oligonucleotide motifs recognized by IDI-1 and IDI-2 and to test whether p53 itself might bind the same oligonucleotide. Single-stranded homooligomers (20-mers) of dG, dA, dC and dT were used. […] Thus, dG is an important ligand for the anti-DNA monoclonal antibodies and for p53 itself. This further supports the presumptions that IDI-1 and IDI-2 mimic the carboxy terminal conformation of p53. In fact, the binding of the antibody to oligo dG is evidence that the antibody actually mimics the C-terminal domain of p53.

[2] = system: mouse antibodies other than PAb-421, like R73; assay: Reactivity of IDI-1 and IDI-2 to control mouse antibodies; type: binding; conditions: control mAb
Method: (§1) FIG. 7 is a graph showing the reactivities of monoclonal antibodies IDI-1 and IDI-2, which were selected for idiotypic binding to PAb-421. […] The binding to single-stranded or double-stranded calf thymus DNA was assessed by ELISA after the DNA had been gamma-irradiated with the indicated dosages (0-10,000 rad).
(§2) Two monoclonal antibodies, IDI-1 and IDI-2, could be isolated which had been selected for idiotypic binding to PAb-421 and their reactivities were determined. […] Thus, these two novel monoclonal antibodies of the present invention appear to mimic the DNA-binding specificity of p53. Thus, such antibodies could serve as models of the critical regulatory conformation of the carboxy-terminal domain of p53.

[3] = system: single-stranded or double-stranded calf thymus DNA; assay: ELISA binding of IDI-1 and IDI-2 to calf thymus DNA, with or without gamma-irradiation; conditions: for change of binding to single-stranded DNA after gamma-irradiation of the DNA: 0-10,000 rad, depending on the radiation dose; for reactivity to DNA (FIG. 7): single-stranded or double-stranded DNA
Method: as §1
For anti-DNA ELISA, a secondary antibody conjugated to horseradish peroxidase, and as substrate 1 mg/ml ABTS in 0.2 M citric acid, 0.2 M Na2HP04, and 3% H202 (all from Sigma) was used. The test antigens used were (Fab) 2 fragments of Ab2 anti-PAb-421, which were prepared as described (Harlow et al, 1988), recombinant p53, the p53 peptide epitope of PAb-421, histones or, after pre-coating with methylated BSA, calf thymus DNA (all from Sigma). All antibody titers are shown as the O. D. produced by the test sera at a dilution of 1:100. Dots represent individual sera, bars represent the median of each group.
as §2

PAb-421 = assay: Reactivity of monoclonal antibodies IDI-1 and IDI-2 to PAb-421; type: binding, mouse
Method: as §1
To generate such antibodies, BALB/c mice were immunized with PAb-421 and selected hybridomas producing anti-idiotypic antibodies that bound PAb-421 and could also bind DNA were isolated.
as §2

| Molecule | death by week 33 of age, mice dead/treated (MRL/MpJ-Fas^lpr mice; peptides 100 μg i.p. in PBS at weeks 12, 18, 24) | heavy proteinuria, ^33 g/l (+++) at week 17 of age, mice affected/treated (MRL/MpJ-Fas^lpr mice) | heavy proteinuria, ^33 g/l (+++) at week 17 of age, mice affected/treated (MRL/MpJ-Fas^lpr mice; listed as 421-epitope) | death by week 33 of age, percent of mice (MRL/MpJ-Fas^lpr mice) | heavy proteinuria, ^33 g/l (+++) at week 17 of age, percent of mice (MRL/MpJ-Fas^lpr mice) | death by week 33 of age, percent of mice (MRL/MpJ-Fas^lpr mice; listed as 421-epitope) | heavy proteinuria, ^33 g/l (+++) at week 17 of age, percent of mice (MRL/MpJ-Fas^lpr mice; listed as 421-epitope) | binding to homooligomers in band-shift assay [1] | reactivity to mouse antibodies other than PAb-421 [2] | change of binding to single-stranded DNA after gamma-irradiation of the DNA [3] | reactivity to DNA (FIG. 7) [3] | reactivity to PAb-421 (FIG. 7) (PAb-421) |
| --- | --- | --- | --- | --- | --- | --- | --- | --- | --- | --- | --- | --- |
| 421-Epitope: p53 peptide SYLKTKKGQSTSRHKKTMVK, residues 364-383 of SEQ ID NO:1, carboxy terminal domain of p53 (listed as Mus sp.) | 0/6 | 2/5 | 2 out of 5 | (0%) | (33%) | 0% | 40% | – | – | – | – | – |
| B1 | – | – | – | – | – | – | – | bound to the dG oligomer better than they did the others | – | – | – | – |
| B2 | – | – | – | – | – | – | – | bound to the dG oligomer better than they did the others | No reactivity | markedly enhanced | specific reactivity | specific reactivity |
| B3 | – | – | – | – | – | – | – | bound to the dG oligomer better than they did the others | No reactivity | somewhat less | specific reactivity | specific reactivity |
